Here are results for one molecule from article PMC3731272, “Evidence for a Novel Mechanism of the PAK1 Interaction with the Rho-GTPases Cdc42 and Rac” (PLoS ONE, 2013).

In the test the target is T1, GFP-PAK1^S79A (UniProt Q13153 1-545, S79A).
T1 construct: source: 293T cells, expressed, in cell extract / lysate
As to the kind of experiment: co-IP; GFP-PAK1 (WT or S79A) coexpressed with Myc-Cdc42 in 293T cells; extracts immunoprecipitated with anti-GFP, blotted with anti-Myc; lysis buffer 50 mM HEPES pH 7.4, 150 mM NaCl, 1 mM EDTA, 10% glycerol, 1% Triton X100 with phosphatase inhibitors; antibodies overnight at 4°C. The settings on record: partners not purified.

T1 sequence (Q13153 whole entry S79A): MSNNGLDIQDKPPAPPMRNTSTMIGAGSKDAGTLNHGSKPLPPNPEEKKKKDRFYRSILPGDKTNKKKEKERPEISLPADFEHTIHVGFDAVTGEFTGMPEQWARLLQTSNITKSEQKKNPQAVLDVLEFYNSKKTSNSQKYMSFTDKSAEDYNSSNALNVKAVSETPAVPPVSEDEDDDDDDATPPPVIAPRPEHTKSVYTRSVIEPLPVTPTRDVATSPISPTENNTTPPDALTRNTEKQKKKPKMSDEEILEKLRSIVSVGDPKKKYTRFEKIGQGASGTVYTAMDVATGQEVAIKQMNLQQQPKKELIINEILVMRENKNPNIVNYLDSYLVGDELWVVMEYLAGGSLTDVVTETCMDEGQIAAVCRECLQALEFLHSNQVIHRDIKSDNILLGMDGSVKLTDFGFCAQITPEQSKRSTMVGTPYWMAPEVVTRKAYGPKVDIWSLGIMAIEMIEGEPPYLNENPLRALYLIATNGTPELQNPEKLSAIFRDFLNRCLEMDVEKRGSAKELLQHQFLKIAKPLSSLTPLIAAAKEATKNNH

B1: Myc-Cdc42 (natural protein)
chain: not shown
notes: Rho GTPase Cdc42; source: 293T cells, coexpressed, in cell extract
On to B1, for which the “fold reduction of binding against wild type PAK1” value is roughly 3 fold.
